Measurements published in the supplement of paper PMC10065799, “High-throughput profiling of sequence recognition by tyrosine kinases and SH2 domains using bacterial peptide display” (eLife, 2023).

target: EPHB2 (UniProt P29323); assay: phosphorylation enrichment, bacterial display (enrichment ratio); higher = better substrate or ligand; peptides without Tyr show the background
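Note: 11-residue human phosphosite peptides and single-mutation variants displayed on the E. coli surface, counted by deep sequencing, each peptide's frequency after selection divided by its frequency in the unselected input library; frequency after pTyr selection over input frequency; kinase dosed for 20-30% of maximal phosphorylation in three min.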

EPHB2, sequence (P29323 whole entry, looked up): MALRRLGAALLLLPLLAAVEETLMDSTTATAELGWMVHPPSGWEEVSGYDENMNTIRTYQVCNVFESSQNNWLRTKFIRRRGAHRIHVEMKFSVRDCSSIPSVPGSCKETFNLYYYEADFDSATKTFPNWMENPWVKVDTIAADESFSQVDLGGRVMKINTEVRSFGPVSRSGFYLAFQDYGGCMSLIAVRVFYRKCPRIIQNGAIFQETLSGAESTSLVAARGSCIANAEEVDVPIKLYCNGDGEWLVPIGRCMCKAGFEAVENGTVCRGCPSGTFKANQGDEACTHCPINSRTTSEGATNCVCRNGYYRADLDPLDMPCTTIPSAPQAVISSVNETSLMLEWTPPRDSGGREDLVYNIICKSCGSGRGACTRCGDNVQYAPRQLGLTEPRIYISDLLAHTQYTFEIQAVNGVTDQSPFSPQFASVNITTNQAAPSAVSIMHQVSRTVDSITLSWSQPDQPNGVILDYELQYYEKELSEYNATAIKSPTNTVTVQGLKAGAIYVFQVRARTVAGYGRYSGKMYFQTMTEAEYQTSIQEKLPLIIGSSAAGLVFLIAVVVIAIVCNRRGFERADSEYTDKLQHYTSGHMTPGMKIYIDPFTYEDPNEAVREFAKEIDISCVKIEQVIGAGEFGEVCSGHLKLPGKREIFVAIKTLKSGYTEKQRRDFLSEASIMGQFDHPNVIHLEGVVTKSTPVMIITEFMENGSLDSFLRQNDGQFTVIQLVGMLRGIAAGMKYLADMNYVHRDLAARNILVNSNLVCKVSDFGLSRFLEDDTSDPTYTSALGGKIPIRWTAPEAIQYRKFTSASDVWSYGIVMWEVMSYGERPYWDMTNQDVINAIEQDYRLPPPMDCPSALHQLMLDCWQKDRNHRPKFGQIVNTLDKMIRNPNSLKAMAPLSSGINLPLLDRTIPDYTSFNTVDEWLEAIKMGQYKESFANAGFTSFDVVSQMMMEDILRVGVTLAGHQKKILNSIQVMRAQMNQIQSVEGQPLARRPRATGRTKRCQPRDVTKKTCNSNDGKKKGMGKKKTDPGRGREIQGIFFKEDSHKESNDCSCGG

Row | Sequence | phosphorylation enrichment
1 | KLGDVYVNDAF [PGK1_Y161] | 0.571
2 | EFFDGYWEFSV [ITGA2B_Y265_G267E_YF] | 0.577
3 | LKFAIYFEARE [LAMA2_Y1258_YF] | 0.983
4 | NRLTDYYELLL [BBS10_Y536_P539L] | 1.66
5 | WDLSEYSYKDP [ITGA3_Y237] | 0.568
6 | CTTIHYNFMCS [TP53_Y234_N239S_YF] | 0.507
7 | HGDDDYDDPEL [CLNK_Y69_S65G] | 0.753
8 | MSPPGYKLVNG [GJA1_Y286_T290N] | 0.38
9 | PLDVEYFTLQI [TP53_Y327_G325V] | 0.659
10 | DENRFYTRAAS [RPS19_Y54_W52R] | 0.478
11 | SVVVPYEPHEV [TP53_Y220_P223H] | 0.615
12 | LSSVSYVGCSL [ADGRD1_Y571_I569V] | 1.06
13 | LLVVLNKYRCY [PSEN1_Y154_Y154N] | 0.875
14 | ALETLYKKAVK [CC2D2A_Y381_E376A] | 0.366
15 | QITQVYGFFHE [PPP2CA_Y127_D131H_YF] | 1.11
16 | LEQQKYTVTVD [IKBKB_Y199] | 0.746
17 | LTERSYSFVTT [ACTA1_Y200_G199S] | 0.984

Row | Sequence | phosphorylation enrichment
18 | EDKSIYRRGAR [PRKCI_Y125] | 0.425
19 | FISLIYTNFEV [GSTP1_Y109_A114V_YF] | 0.903
20 | PDDPNYSLVDD [PSTPIP2_Y323] | 1.49
21 | PVQAAYQNVVA [HBB_Y131_K133N] | 0.567
22 | CTTVHYNYMCN [TP53_Y234_I232V] | 0.496
23 | QMVRMYASSYM [AVPR2_Y124_G122R] | 0.787
24 | FAELVYTSFWH [ASS1_Y322_G324S] | 3.44
25 | APQFTYTQGGQ [FLNA_Y1763_A1764T_YF] | 0.536
26 | FASALYRQRRS [FGF11_Y162_YF] | 0.622
27 | EKSREYHRLYE [PIK3R1_Y463_D464H] | 0.435
28 | RRVLVYGGRGA [QDPR_Y16] | 0.822
29 | ACLSLYGGFVE [MVD_Y164_R161L] | 1.13
30 | SENFTYIWWLN [PSG4_Y271_K267E_YF] | 0.771
31 | CTTIHQNYMCN [TP53_Y234_Y234Q] | 0.432
32 | KWHREYNSKYV [RICTOR_Y835] | 0.401
33 | SSEYHCVGGFY [CTSC_Y347_Y347C] | 4.66

target: Fyn (UniProt P06241); assay: as above
Sequence (P06241 whole entry, looked up): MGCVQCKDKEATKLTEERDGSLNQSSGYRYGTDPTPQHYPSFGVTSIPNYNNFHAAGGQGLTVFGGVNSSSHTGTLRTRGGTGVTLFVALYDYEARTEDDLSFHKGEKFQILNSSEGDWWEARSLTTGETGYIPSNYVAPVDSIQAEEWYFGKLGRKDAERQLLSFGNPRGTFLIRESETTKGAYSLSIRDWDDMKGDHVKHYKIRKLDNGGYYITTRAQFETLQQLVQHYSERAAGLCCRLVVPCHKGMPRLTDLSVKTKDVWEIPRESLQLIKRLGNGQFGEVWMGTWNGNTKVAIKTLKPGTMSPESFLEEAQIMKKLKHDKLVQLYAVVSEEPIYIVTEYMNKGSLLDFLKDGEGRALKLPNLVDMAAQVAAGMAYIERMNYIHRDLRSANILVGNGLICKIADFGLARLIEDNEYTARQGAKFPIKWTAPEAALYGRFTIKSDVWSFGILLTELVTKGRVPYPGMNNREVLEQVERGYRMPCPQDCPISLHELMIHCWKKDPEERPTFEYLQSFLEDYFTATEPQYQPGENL

Row | Sequence | phosphorylation enrichment
34 | KLGDVYVNDAF [PGK1_Y161] | 0.552
35 | EFFDGYWEFSV [ITGA2B_Y265_G267E_YF] | 3.4
36 | LKFAIYFEARE [LAMA2_Y1258_YF] | 1.29
37 | NRLTDYYELLL [BBS10_Y536_P539L] | 1.1
38 | WDLSEYSYKDP [ITGA3_Y237] | 0.914
39 | CTTIHYNFMCS [TP53_Y234_N239S_YF] | 0.502
40 | HGDDDYDDPEL [CLNK_Y69_S65G] | 0.69
41 | MSPPGYKLVNG [GJA1_Y286_T290N] | 0.412
42 | PLDVEYFTLQI [TP53_Y327_G325V] | 2.35
43 | DENRFYTRAAS [RPS19_Y54_W52R] | 0.488
44 | SVVVPYEPHEV [TP53_Y220_P223H] | 0.54
45 | LSSVSYVGCSL [ADGRD1_Y571_I569V] | 1.16
46 | LLVVLNKYRCY [PSEN1_Y154_Y154N] | 0.631
47 | ALETLYKKAVK [CC2D2A_Y381_E376A] | 0.342
48 | QITQVYGFFHE [PPP2CA_Y127_D131H_YF] | 17.8
49 | LEQQKYTVTVD [IKBKB_Y199] | 0.706
50 | LTERSYSFVTT [ACTA1_Y200_G199S] | 0.622

Row | Sequence | phosphorylation enrichment
51 | EDKSIYRRGAR [PRKCI_Y125] | 0.351
52 | FISLIYTNFEV [GSTP1_Y109_A114V_YF] | 3.99
53 | PDDPNYSLVDD [PSTPIP2_Y323] | 1.15
54 | PVQAAYQNVVA [HBB_Y131_K133N] | 0.644
55 | CTTVHYNYMCN [TP53_Y234_I232V] | 0.448
56 | QMVRMYASSYM [AVPR2_Y124_G122R] | 0.557
57 | FAELVYTSFWH [ASS1_Y322_G324S] | 8.65
58 | APQFTYTQGGQ [FLNA_Y1763_A1764T_YF] | 0.5
59 | FASALYRQRRS [FGF11_Y162_YF] | 0.577
60 | EKSREYHRLYE [PIK3R1_Y463_D464H] | 0.498
61 | RRVLVYGGRGA [QDPR_Y16] | 0.563
62 | ACLSLYGGFVE [MVD_Y164_R161L] | 5.43
63 | SENFTYIWWLN [PSG4_Y271_K267E_YF] | 0.513
64 | CTTIHQNYMCN [TP53_Y234_Y234Q] | 0.361
65 | KWHREYNSKYV [RICTOR_Y835] | 0.398
66 | SSEYHCVGGFY [CTSC_Y347_Y347C] | 1.76

target: FGFR3 (UniProt P22607); assay: as above
Sequence (P22607 whole entry, looked up): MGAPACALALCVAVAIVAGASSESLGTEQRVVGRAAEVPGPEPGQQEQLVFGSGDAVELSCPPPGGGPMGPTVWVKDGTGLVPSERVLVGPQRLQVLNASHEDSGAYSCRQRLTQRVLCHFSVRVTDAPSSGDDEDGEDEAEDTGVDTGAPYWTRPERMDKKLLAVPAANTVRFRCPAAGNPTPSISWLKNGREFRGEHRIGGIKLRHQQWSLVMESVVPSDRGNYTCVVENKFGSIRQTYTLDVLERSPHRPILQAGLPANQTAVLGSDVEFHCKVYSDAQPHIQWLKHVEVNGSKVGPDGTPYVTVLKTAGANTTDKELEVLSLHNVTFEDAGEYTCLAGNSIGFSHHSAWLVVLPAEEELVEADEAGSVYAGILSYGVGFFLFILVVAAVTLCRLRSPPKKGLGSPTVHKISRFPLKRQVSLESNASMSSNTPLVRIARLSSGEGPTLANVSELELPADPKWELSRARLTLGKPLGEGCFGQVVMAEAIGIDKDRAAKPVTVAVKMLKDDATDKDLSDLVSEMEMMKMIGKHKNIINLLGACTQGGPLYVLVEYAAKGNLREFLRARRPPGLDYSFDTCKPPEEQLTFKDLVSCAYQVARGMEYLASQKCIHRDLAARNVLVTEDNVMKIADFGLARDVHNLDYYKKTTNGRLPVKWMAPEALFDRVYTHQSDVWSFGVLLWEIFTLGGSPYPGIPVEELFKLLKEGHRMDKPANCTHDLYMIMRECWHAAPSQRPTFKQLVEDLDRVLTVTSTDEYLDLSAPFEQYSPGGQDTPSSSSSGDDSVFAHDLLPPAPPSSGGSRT

Row | Sequence | phosphorylation enrichment
67 | KLGDVYVNDAF [PGK1_Y161] | 0.63
68 | EFFDGYWEFSV [ITGA2B_Y265_G267E_YF] | 6.69
69 | LKFAIYFEARE [LAMA2_Y1258_YF] | 2.05
70 | NRLTDYYELLL [BBS10_Y536_P539L] | 10.1
71 | WDLSEYSYKDP [ITGA3_Y237] | 0.631
72 | CTTIHYNFMCS [TP53_Y234_N239S_YF] | 0.799
73 | HGDDDYDDPEL [CLNK_Y69_S65G] | 1.02
74 | MSPPGYKLVNG [GJA1_Y286_T290N] | 0.438
75 | PLDVEYFTLQI [TP53_Y327_G325V] | 5.88
76 | DENRFYTRAAS [RPS19_Y54_W52R] | 0.644
77 | SVVVPYEPHEV [TP53_Y220_P223H] | 0.835
78 | LSSVSYVGCSL [ADGRD1_Y571_I569V] | 1.04
79 | LLVVLNKYRCY [PSEN1_Y154_Y154N] | 1.39
80 | ALETLYKKAVK [CC2D2A_Y381_E376A] | 0.475
81 | QITQVYGFFHE [PPP2CA_Y127_D131H_YF] | 1.26
82 | LEQQKYTVTVD [IKBKB_Y199] | 1.06
83 | LTERSYSFVTT [ACTA1_Y200_G199S] | 0.718

Row | Sequence | phosphorylation enrichment
84 | EDKSIYRRGAR [PRKCI_Y125] | 0.696
85 | FISLIYTNFEV [GSTP1_Y109_A114V_YF] | 1.21
86 | PDDPNYSLVDD [PSTPIP2_Y323] | 1.31
87 | PVQAAYQNVVA [HBB_Y131_K133N] | 0.692
88 | CTTVHYNYMCN [TP53_Y234_I232V] | 0.622
89 | QMVRMYASSYM [AVPR2_Y124_G122R] | 0.988
90 | FAELVYTSFWH [ASS1_Y322_G324S] | 4.28
91 | APQFTYTQGGQ [FLNA_Y1763_A1764T_YF] | 0.582
92 | FASALYRQRRS [FGF11_Y162_YF] | 0.531
93 | EKSREYHRLYE [PIK3R1_Y463_D464H] | 0.466
94 | RRVLVYGGRGA [QDPR_Y16] | 0.702
95 | ACLSLYGGFVE [MVD_Y164_R161L] | 1.31
96 | SENFTYIWWLN [PSG4_Y271_K267E_YF] | 1.03
97 | CTTIHQNYMCN [TP53_Y234_Y234Q] | 0.56
98 | KWHREYNSKYV [RICTOR_Y835] | 0.42
99 | SSEYHCVGGFY [CTSC_Y347_Y347C] | 5.2

target: EPHB1 (UniProt P54762); assay: as above
Sequence (P54762 whole entry, looked up): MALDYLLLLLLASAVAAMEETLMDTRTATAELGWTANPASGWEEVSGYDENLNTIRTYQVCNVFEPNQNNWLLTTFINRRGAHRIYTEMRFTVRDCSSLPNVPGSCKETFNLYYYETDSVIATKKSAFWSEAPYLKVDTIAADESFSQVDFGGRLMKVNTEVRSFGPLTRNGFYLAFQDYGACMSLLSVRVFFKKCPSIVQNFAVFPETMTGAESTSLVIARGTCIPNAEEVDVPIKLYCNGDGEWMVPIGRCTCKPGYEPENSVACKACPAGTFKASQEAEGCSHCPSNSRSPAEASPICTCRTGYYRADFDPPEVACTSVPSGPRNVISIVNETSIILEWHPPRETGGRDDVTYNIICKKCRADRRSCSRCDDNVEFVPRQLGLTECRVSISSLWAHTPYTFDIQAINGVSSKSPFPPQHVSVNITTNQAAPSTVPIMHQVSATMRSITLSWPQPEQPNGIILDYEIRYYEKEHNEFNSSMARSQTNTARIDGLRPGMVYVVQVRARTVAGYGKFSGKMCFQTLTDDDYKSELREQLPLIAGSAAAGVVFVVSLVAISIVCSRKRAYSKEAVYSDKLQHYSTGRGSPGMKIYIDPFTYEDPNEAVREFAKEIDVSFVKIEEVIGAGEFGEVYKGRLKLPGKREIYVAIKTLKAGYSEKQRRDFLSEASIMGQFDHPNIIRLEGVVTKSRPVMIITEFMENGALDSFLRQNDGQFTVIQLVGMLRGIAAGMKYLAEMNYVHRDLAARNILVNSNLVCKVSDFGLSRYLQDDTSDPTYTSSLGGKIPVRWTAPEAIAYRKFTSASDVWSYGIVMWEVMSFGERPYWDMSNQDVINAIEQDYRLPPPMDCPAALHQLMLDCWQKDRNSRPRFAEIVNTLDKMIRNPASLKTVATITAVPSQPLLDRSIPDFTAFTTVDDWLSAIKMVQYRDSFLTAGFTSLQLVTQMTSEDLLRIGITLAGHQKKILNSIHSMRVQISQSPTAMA

Row | Sequence | phosphorylation enrichment
100 | KLGDVYVNDAF [PGK1_Y161] | 0.467
101 | EFFDGYWEFSV [ITGA2B_Y265_G267E_YF] | 0.709
102 | LKFAIYFEARE [LAMA2_Y1258_YF] | 1.78
103 | NRLTDYYELLL [BBS10_Y536_P539L] | 2.44
104 | WDLSEYSYKDP [ITGA3_Y237] | 0.424
105 | CTTIHYNFMCS [TP53_Y234_N239S_YF] | 0.634
106 | HGDDDYDDPEL [CLNK_Y69_S65G] | 0.756
107 | MSPPGYKLVNG [GJA1_Y286_T290N] | 0.403
108 | PLDVEYFTLQI [TP53_Y327_G325V] | 0.804
109 | DENRFYTRAAS [RPS19_Y54_W52R] | 0.497
110 | SVVVPYEPHEV [TP53_Y220_P223H] | 0.716
111 | LSSVSYVGCSL [ADGRD1_Y571_I569V] | 0.633
112 | LLVVLNKYRCY [PSEN1_Y154_Y154N] | 1.03
113 | ALETLYKKAVK [CC2D2A_Y381_E376A] | 0.348
114 | QITQVYGFFHE [PPP2CA_Y127_D131H_YF] | 0.788
115 | LEQQKYTVTVD [IKBKB_Y199] | 0.566
116 | LTERSYSFVTT [ACTA1_Y200_G199S] | 0.543

Row | Sequence | phosphorylation enrichment
117 | EDKSIYRRGAR [PRKCI_Y125] | 0.315
118 | FISLIYTNFEV [GSTP1_Y109_A114V_YF] | 1.07
119 | PDDPNYSLVDD [PSTPIP2_Y323] | 1.09
120 | PVQAAYQNVVA [HBB_Y131_K133N] | 0.915
121 | CTTVHYNYMCN [TP53_Y234_I232V] | 0.542
122 | QMVRMYASSYM [AVPR2_Y124_G122R] | 0.842
123 | FAELVYTSFWH [ASS1_Y322_G324S] | 2.99
124 | APQFTYTQGGQ [FLNA_Y1763_A1764T_YF] | 0.444
125 | FASALYRQRRS [FGF11_Y162_YF] | 0.513
126 | EKSREYHRLYE [PIK3R1_Y463_D464H] | 0.428
127 | RRVLVYGGRGA [QDPR_Y16] | 0.488
128 | ACLSLYGGFVE [MVD_Y164_R161L] | 1.21
129 | SENFTYIWWLN [PSG4_Y271_K267E_YF] | 0.73
130 | CTTIHQNYMCN [TP53_Y234_Y234Q] | 0.536
131 | KWHREYNSKYV [RICTOR_Y835] | 0.348
132 | SSEYHCVGGFY [CTSC_Y347_Y347C] | 3.8
